Data reported in patent US20070089183A1 (WASHINGTON STATE UNIVERSITY, published 2007).

Target: dansyl-CaM (Sigma) (Homo sapiens (Human), UniProt P0DP23 2-149)
Assay: fluorescence titration of dansyl-CaM with increasing amounts of peptide

- Kd: 24.2 nM
Binder: CRKKYRAIGTFMSVYYKSKKGR (also called synthetic DWF1 CaMBD) [synthetic DWF1 CaM-binding peptide (518-539), CRKKYRAIGTFMSVYYKSKKGR]
